Measured values as given in the supplement of paper PMC12042874.
± gives the uncertainty stated by the source.

Assay: amyloid nucleation score (Sup35N fusion, yeast selection) (log enrichment); library NNK1; higher = more nucleation; inactive = no reads after selection
Method in brief: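 The nucleation score is a DiMSum log enrichment of output over input reads, centred on the mode score of non-aggregating sequences. Sequences under 100 input reads were excluded, and reads came from Illumina sequencing of plasmid inserts. Psi-negative yeast expressing Sup35N fused to peptides of 20 random codons were induced with 100 μM copper sulfate for 24 hours and grown 7 days at 30°C on medium lacking adenine and uracil. Random libraries had three technical output replicates.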

| Substance | amyloid nucleation score |
| --- | --- |
| ISLPLTPN | -0.492 ± 0.36 |
| PKVFIEKAAIYIFAL | 0.029 ± 0.51 |
| KPTLGVILTTTTFTRSCLYY | -0.252 ± 0.73 |
| GWAGRVCNRGKTWDIDLRQR | -0.7 ± 0.34 |
| TLSKYQS | 0.221 ± 0.53 |
| LIDLCGLCFEAR | 0.181 ± 0.26 |
| ISCCVKLRFGLCKSWNFMNQ | -1.19 ± 1.4 |
| SLSKLAICMWSYIFNMSYFC | -0.139 ± 0.81 |
| GFVPLWLW | 0.977 ± 0.8 |
| APEFFNSDRASIAKF | -0.558 ± 0.77 |
| FNIYSQMYIW | 5.32 ± 0.066 |
| TEEKSRVRLFNRRHRGISRG | 3.95 ± 0.091 |
| SSILDHLAAFVRRWFVYALL | -0.591 ± 0.98 |
| SFLCAFICHYTDVFVHLARS | 1.49 ± 0.54 |
| FILSEFSNRF | 0.104 ± 0.34 |
| RYCHVLIVIAQANQSFKDVQ | 7.725 ± 0.056 |
| AVGIANFTAPKCWLDNVGP | 0.085 ± 0.59 |
| PQLTRSGQ | -0.14 ± 0.28 |
| MLYFRVGVSFGLFVDNFVGF | 2.12 ± 0.13 |
| HMVFC | -0.446 ± 0.33 |
| EDGSQ | 0.532 ± 0.42 |
| TCRESMRYVDNGLAFYSWFY | -0.983 ± 0.56 |

| Substance | amyloid nucleation score |
| --- | --- |
| MRRHLGHLTLESGNHGCLQA | inactive |
| KHSNLYIFPGVYFFQITSLY | 3.96 ± 0.088 |
| DLSDLFLYHFVIWTSVNYSY | -0.562 ± 1.1 |
| IMARCIVFKPG | 0.136 ± 0.75 |
| FLCVF | 0.097 ± 0.88 |
| GDRKACSVRCRHATDKICAD | -0.309 ± 0.57 |
| AVHICYNYRSYSI | 0.5 ± 0.95 |
| SNRALMADLKERNVINTPIN | -0.385 ± 1.9 |
| IVLMLCV | -0.097 ± 0.36 |
| ERRQSEKPGLLPSWS | 0.46 ± 1.2 |
| FLFLPVSVSYYEDDSGHVLC | inactive |
| LGKNFLYISCSLTDQGAGLH | 2.7 ± 0.16 |
| PINGEGSVSTLNDMVLSRSI | 1.26 ± 0.81 |
| DGHGRYA | inactive |
| SLLFY | inactive |
| YVCGGWCVRVVRQVGYVNL | 0.421 ± 0.55 |
| WHRDVGFTLISVTPFCMMGG | 1.54 ± 0.33 |
| TLSISTMIAAVGTLSVCGDM | 0.768 ± 0.16 |
| FCLFKFDCSLSWPQVYRYRL | 1.09 ± 0.36 |
| NLLFAVMLVFSRVQVVFNNG | -0.355 ± 0.25 |
| CSCACCVELHQL | 6.611 ± 0.062 |
| CFPTWYLLLDCWVQFPAHTK | 2.56 ± 0.16 |

| Substance | amyloid nucleation score |
| --- | --- |
| VSPSIRMGNQGSSFSVLNAL | 0.149 ± 0.55 |
| GFLVSEGFLIVGLLIRVRGL | 0.641 ± 0.37 |
| LWERGKCHEACVVPAKKEGT | 0.039 ± 0.51 |
| NYLGLLSEAVSRGVQLGDAT | inactive |
| DASLQWYVDSLKFCWV | 0.18 ± 0.36 |
| ILSIFLYWAILLRSCQYLYW | -0.949 ± 0.4 |
| CSRTRRSHSIECACCKYIFA | -0.343 ± 0.47 |
| VYPWPVERSNFPTSALSYTK | -0.843 ± 0.6 |
| SSILISFI | -0.471 ± 0.94 |
| LCDYKRPCMTMYNHHELLII | 0.005 ± 0.47 |
| AGWKTRHQGRVIVLGFWEGW | 0.059 ± 0.41 |
| LGAQGLFVYSLLCQT | -0.126 ± 0.68 |
| SISAASCIHFRMDVVCKTDF | -0.519 ± 0.41 |
| TWCIAVVSEILLLHI | inactive |
| YLAWNM | 1.8 ± 0.34 |
| RDAFYRGRTRFNQRRYMYRR | -0.335 ± 0.53 |
| IGSVCLQ | inactive |
| VAWPRGPVKARGIYISGRIC | inactive |
| IWCNMSFNIRV | 4.4 ± 0.088 |
| ALKGSRHDL | -0.037 ± 0.73 |
| MADEWLCQKCGSRVT | -0.207 ± 0.59 |
| TIINLGILLYYVGFFSIDPG | 5.866 ± 0.052 |

| Substance | amyloid nucleation score |
| --- | --- |
| RNIATYYFRSN | 0.612 ± 0.48 |
| FLRNNKIPVVFFSPS | inactive |
| DNRDYVALSFPRKLKWCYIS | -0.834 ± 0.25 |
| YYNLTSGPFKGGCWQRYF | -0.205 ± 0.32 |
| RVSCFRTRDRIFGVFTQSQV | -0.314 ± 1.2 |
| NDNSVTILVCARVSTNGIFD | 3.38 ± 0.11 |
| CWNVLNCMHAFRCGPMNQRR | 0.831 ± 0.58 |
| SMVNNWIMDCLWAILWVIDI | inactive |
| WSRMGLAILRFFKYLS | 0.093 ± 0.36 |
| GLRSESRKRGGGGGVAREVG | -0.053 ± 0.86 |
| WWYYNRRWLVTCKSVYGLGM | -0.34 ± 0.37 |
| STGLACSSWQAFIYLCLLYY | -0.516 ± 1.1 |
| YIDEIY | -0.759 ± 0.35 |
| FVLFRLFEFASNIRVTFFF | -0.833 ± 0.62 |
| FGINVVRGKCRVRSLKDIDS | -0.086 ± 0.48 |
| KGRSCLGRLRLVGQMRPKYN | 0.366 ± 0.76 |
| NADCVTMVYSKLVWLPVEDT | 0.458 ± 0.57 |
| LFILPCQVNLHECMVLCLFE | 5.91 ± 0.06 |
| VDISVAYRC | -1.59 ± 1.3 |
| VGTFTTELKVVGRIDIVWAR | 0.723 ± 0.46 |
| DVFADGKVIQAYLM | -0.117 ± 0.39 |
